± gives the standard error. For part of these data: Variants at the floor of the assay were thinned out.
B1: glmS ribozyme (parent)
chain: AUAAAAGCGCCAGAACUACAGAAAUGUAGUUGACGAGGAGGAGGUUUAUCGAAUUUUCGGCGGAUGCCUCCAAA

Tests used:
Settings in all cases: with glucosamine-6-phosphate
glucosamine-6-phosphate [1] = variants of: B1; assay: kcat; higher = faster cleavage; RNA array
Method in brief: (§1)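 Barcoded ribozyme variants on sequenced MiSeq chips were transcribed in situ by E. coli RNA polymerase and followed at 37 °C through a hybridised Cy3 probe. Glucosamine-6-phosphate at 40 μM to 10 mM in HEPES/KCl/Mg(OAc)2 buffer was flowed in, and tiles were imaged over ~14 h. Signals were normalised to baseline and to non-cleaving reference variants, and per-tile medians were fit to one- or two-exponential decays to give kobs. Weighted Michaelis–Menten fits across concentrations gave kcat and KM.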

glucosamine-6-phosphate [2] = variants of: B1; assay: self-cleavage kobs at 160 uM GlcN6P; higher = faster cleavage; RNA array
Method in brief: as §1

glucosamine-6-phosphate [3] = variants of: B1; assay: self-cleavage kobs at 640 uM GlcN6P; higher = faster cleavage; RNA array
Method in brief: as §1

glucosamine-6-phosphate [4] = variants of: B1; assay: self-cleavage kobs at 2500 uM GlcN6P; higher = faster cleavage; RNA array
Method in brief: as §1

glucosamine-6-phosphate [5] = variants of: B1; assay: KM; higher = weaker cofactor use; RNA array
Method in brief: as §1

glucosamine-6-phosphate [6] = variants of: B1; assay: self-cleavage kobs at 40 uM GlcN6P; higher = faster cleavage; RNA array
Method in brief: as §1

glucosamine-6-phosphate [7] = variants of: B1; assay: self-cleavage kobs at 10000 uM GlcN6P; higher = faster cleavage; RNA array
Method in brief: as §1

With G37C U47G U69G the kcat (glucosamine-6-phosphate [1]) was 7.04e-05 ± 2.8e-05 s⁻¹, the “self-cleavage kobs at 160 uM GlcN6P” value (glucosamine-6-phosphate [2]) was 7.9e-05 ± 2.3e-05 s⁻¹ and the “self-cleavage kobs at 640 uM GlcN6P” value (glucosamine-6-phosphate [3]) was 5.97e-05 ± 2e-05 s⁻¹. For the same variant, the “self-cleavage kobs at 2500 uM GlcN6P” value (glucosamine-6-phosphate [4]) was 0.000138 ± 4.1e-05 s⁻¹.

In the case of G7U C16A G37A A53U C71A, the kcat (glucosamine-6-phosphate [1]) is reported as 1.25e-05 ± 4.6e-06 s⁻¹.

With U31C U55A the kcat (glucosamine-6-phosphate [1]) was 0.00809 ± 0.0017 s⁻¹, the KM (glucosamine-6-phosphate [5]) was 3270 ± 1100 µM and the “self-cleavage kobs at 40 uM GlcN6P” value (glucosamine-6-phosphate [6]) was 0.000152 ± 2.3e-05 s⁻¹. The “self-cleavage kobs at 160 uM GlcN6P” value (glucosamine-6-phosphate [2]) was 0.000289 ± 6.8e-05 s⁻¹, the “self-cleavage kobs at 640 uM GlcN6P” value (glucosamine-6-phosphate [3]) was 0.00126 ± 0.00017 s⁻¹ and the “self-cleavage kobs at 2500 uM GlcN6P” value (glucosamine-6-phosphate [4]) was 0.00333 ± 0.00051 s⁻¹. The “self-cleavage kobs at 10000 uM GlcN6P” value (glucosamine-6-phosphate [7]) was 0.00623 ± 0.00059 s⁻¹.

With A12G C71A the kcat (glucosamine-6-phosphate [1]) was 0.000639 ± 4.4e-05 s⁻¹, the KM (glucosamine-6-phosphate [5]) was 4880 ± 500 µM and the “self-cleavage kobs at 640 uM GlcN6P” value (glucosamine-6-phosphate [3]) was 7.45e-05 ± 1e-05 s⁻¹. The “self-cleavage kobs at 2500 uM GlcN6P” value (glucosamine-6-phosphate [4]) was 0.000215 ± 3.9e-05 s⁻¹ and the “self-cleavage kobs at 10000 uM GlcN6P” value (glucosamine-6-phosphate [7]) was 0.00043 ± 5.9e-05 s⁻¹.

G38A A52C was tested, and the kcat (glucosamine-6-phosphate [1]) was 1.04e-05 ± 2.3e-07 s⁻¹, the KM (glucosamine-6-phosphate [5]) was 129 ± 16 µM and the “self-cleavage kobs at 640 uM GlcN6P” value (glucosamine-6-phosphate [3]) was under 1e-05 s⁻¹. The “self-cleavage kobs at 10000 uM GlcN6P” value (glucosamine-6-phosphate [7]) was under 1e-05 s⁻¹.

G66U C67A was tested, and the kcat (glucosamine-6-phosphate [1]) was 0.00338 ± 0.00094 s⁻¹, the KM (glucosamine-6-phosphate [5]) was 3020 ± 1100 µM and the “self-cleavage kobs at 40 uM GlcN6P” value (glucosamine-6-phosphate [6]) was 5.28e-05 ± 1.5e-05 s⁻¹. The “self-cleavage kobs at 160 uM GlcN6P” value (glucosamine-6-phosphate [2]) was 0.000188 ± 5.8e-05 s⁻¹, the “self-cleavage kobs at 640 uM GlcN6P” value (glucosamine-6-phosphate [3]) was 0.0005 ± 9.9e-05 s⁻¹ and the “self-cleavage kobs at 2500 uM GlcN6P” value (glucosamine-6-phosphate [4]) was 0.00197 ± 0.00041 s⁻¹. For the same variant, the “self-cleavage kobs at 10000 uM GlcN6P” value (glucosamine-6-phosphate [7]) was 0.00241 ± 0.00063 s⁻¹.

In the case of A15U A48U, the kcat (glucosamine-6-phosphate [1]) is reported as 0.000133 ± 4.2e-05 s⁻¹, the “self-cleavage kobs at 160 uM GlcN6P” value (glucosamine-6-phosphate [2]) is reported as under 1e-05 s⁻¹ and the “self-cleavage kobs at 10000 uM GlcN6P” value (glucosamine-6-phosphate [7]) is reported as 4.87e-05 ± 9.2e-06 s⁻¹.

In the case of C67U C70G, the kcat (glucosamine-6-phosphate [1]) is reported as 2.32e-05 ± 6.8e-06 s⁻¹, the “self-cleavage kobs at 640 uM GlcN6P” value (glucosamine-6-phosphate [3]) is reported as 2.59e-05 ± 9e-06 s⁻¹ and the “self-cleavage kobs at 2500 uM GlcN6P” value (glucosamine-6-phosphate [4]) is reported as 2.88e-05 ± 6.7e-06 s⁻¹.

In the case of U47G A64G C70G, the kcat (glucosamine-6-phosphate [1]) is reported as 3.26e-05 ± 9.4e-06 s⁻¹ and the “self-cleavage kobs at 40 uM GlcN6P” value (glucosamine-6-phosphate [6]) is reported as under 1e-05 s⁻¹.

With A12C U45A A64U the kcat (glucosamine-6-phosphate [1]) was 0.00036 ± 8.2e-05 s⁻¹, the KM (glucosamine-6-phosphate [5]) was 5800 ± 2500 µM and the “self-cleavage kobs at 640 uM GlcN6P” value (glucosamine-6-phosphate [3]) was 2.84e-05 ± 1.2e-05 s⁻¹. The “self-cleavage kobs at 2500 uM GlcN6P” value (glucosamine-6-phosphate [4]) was 0.000134 ± 3.1e-05 s⁻¹ and the “self-cleavage kobs at 10000 uM GlcN6P” value (glucosamine-6-phosphate [7]) was 0.000223 ± 3.2e-05 s⁻¹.

With C11U U56A C70U the kcat (glucosamine-6-phosphate [1]) was 0.00048 ± 0.00011 s⁻¹, the “self-cleavage kobs at 40 uM GlcN6P” value (glucosamine-6-phosphate [6]) was 3.04e-05 ± 9.5e-06 s⁻¹ and the “self-cleavage kobs at 640 uM GlcN6P” value (glucosamine-6-phosphate [3]) was 0.000508 ± 0.00011 s⁻¹. The “self-cleavage kobs at 2500 uM GlcN6P” value (glucosamine-6-phosphate [4]) was 0.000485 ± 0.00013 s⁻¹ and the “self-cleavage kobs at 10000 uM GlcN6P” value (glucosamine-6-phosphate [7]) was 0.000416 ± 6.3e-05 s⁻¹.

For A42U U55A, the kcat (glucosamine-6-phosphate [1]) was 0.000213 ± 6.1e-06 s⁻¹, the KM (glucosamine-6-phosphate [5]) was 1260 ± 86 µM and the “self-cleavage kobs at 640 uM GlcN6P” value (glucosamine-6-phosphate [3]) was 7.19e-05 ± 1.1e-05 s⁻¹. For the same variant, the “self-cleavage kobs at 2500 uM GlcN6P” value (glucosamine-6-phosphate [4]) was 0.000143 ± 2.6e-05 s⁻¹ and the “self-cleavage kobs at 10000 uM GlcN6P” value (glucosamine-6-phosphate [7]) was 0.000188 ± 2.2e-05 s⁻¹.

With U45G U55A the kcat (glucosamine-6-phosphate [1]) was 0.00686 ± 0.00089 s⁻¹, the KM (glucosamine-6-phosphate [5]) was 1800 ± 330 µM and the “self-cleavage kobs at 40 uM GlcN6P” value (glucosamine-6-phosphate [6]) was 0.000186 ± 4e-05 s⁻¹. The “self-cleavage kobs at 160 uM GlcN6P” value (glucosamine-6-phosphate [2]) was 0.000513 ± 7.7e-05 s⁻¹, the “self-cleavage kobs at 640 uM GlcN6P” value (glucosamine-6-phosphate [3]) was 0.00187 ± 0.00028 s⁻¹ and the “self-cleavage kobs at 2500 uM GlcN6P” value (glucosamine-6-phosphate [4]) was 0.00385 ± 0.00058 s⁻¹. The “self-cleavage kobs at 10000 uM GlcN6P” value (glucosamine-6-phosphate [7]) was 0.00606 ± 0.0012 s⁻¹.

For A14C C71A, the kcat (glucosamine-6-phosphate [1]) was 0.00106 ± 0.00051 s⁻¹, the “self-cleavage kobs at 40 uM GlcN6P” value (glucosamine-6-phosphate [6]) was 3.61e-05 ± 1.7e-05 s⁻¹ and the “self-cleavage kobs at 160 uM GlcN6P” value (glucosamine-6-phosphate [2]) was 0.000121 ± 3.2e-05 s⁻¹. The “self-cleavage kobs at 640 uM GlcN6P” value (glucosamine-6-phosphate [3]) was 0.000194 ± 3.2e-05 s⁻¹, the “self-cleavage kobs at 2500 uM GlcN6P” value (glucosamine-6-phosphate [4]) was 0.000353 ± 5.6e-05 s⁻¹ and the “self-cleavage kobs at 10000 uM GlcN6P” value (glucosamine-6-phosphate [7]) was 0.000984 ± 0.00013 s⁻¹.

With U47G A48C the kcat (glucosamine-6-phosphate [1]) was 0.000154 ± 1.4e-05 s⁻¹, the KM (glucosamine-6-phosphate [5]) was 2250 ± 640 µM and the “self-cleavage kobs at 40 uM GlcN6P” value (glucosamine-6-phosphate [6]) was under 1e-05 s⁻¹. The “self-cleavage kobs at 2500 uM GlcN6P” value (glucosamine-6-phosphate [4]) was 9.31e-05 ± 3e-05 s⁻¹ and the “self-cleavage kobs at 10000 uM GlcN6P” value (glucosamine-6-phosphate [7]) was 0.000124 ± 1.9e-05 s⁻¹.

A12G C58G C67A was tested, and the kcat (glucosamine-6-phosphate [1]) was 0.000115 ± 2.4e-05 s⁻¹, the “self-cleavage kobs at 640 uM GlcN6P” value (glucosamine-6-phosphate [3]) was 0.000136 ± 3.6e-05 s⁻¹ and the “self-cleavage kobs at 2500 uM GlcN6P” value (glucosamine-6-phosphate [4]) was 9.94e-05 ± 2.1e-05 s⁻¹.
